Experimental data published in patent publication US20210179666A1, “CYCLIC PEPTIDES AND METHODS OF USE THEREOF” (Regents of the University of Minnesota, priority 2019, published 2021).

Biological target: human melanocortin 4 receptor (human) (UniProt P32245)
Assay: cell-based or functional assay

Chain of human melanocortin 4 receptor (human) (P32245 whole entry): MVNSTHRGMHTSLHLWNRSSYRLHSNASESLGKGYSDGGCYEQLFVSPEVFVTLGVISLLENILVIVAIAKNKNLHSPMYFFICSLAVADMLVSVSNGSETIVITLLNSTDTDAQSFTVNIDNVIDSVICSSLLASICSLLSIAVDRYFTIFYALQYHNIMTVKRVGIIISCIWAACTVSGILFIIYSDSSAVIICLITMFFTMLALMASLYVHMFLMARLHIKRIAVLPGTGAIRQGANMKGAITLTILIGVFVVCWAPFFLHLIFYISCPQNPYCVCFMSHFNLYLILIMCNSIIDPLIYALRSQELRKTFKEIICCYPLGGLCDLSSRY

Substance: AgRP (from UniProt O00253 87-132) (ligand)
- pA2 (Schild analysis, agonist NDP-MSH, cAMP): 8.7
